Results as given in article PMC4989169.
Values belong to the molecule of their own block, whether it stands above or below them.

What was measured:
[1] = biological target: active MASP-3cf (catalytic fragment of active MASP-3 containing the CCP1-CCP2-SP domains) (human) (UniProt P48740); test: enzyme inhibition assay (equilibrium KI from residual activity, photometric); Ca2+-free buffer: 20 mM HEPES, 150 mM NaCl, 0.1 mM EDTA, 0.05% Triton-X100, pH 7.4
[2] = biological target: active MASP-3cf (catalytic fragment of active MASP-3 containing the CCP1-CCP2-SP domains) (human) (UniProt P48740); test: enzyme inhibition assay (equilibrium KI from residual activity, photometric); enzymes co-incubated with serial dilutions of the inhibitors for 2 h at room temperature; 20 mM HEPES, 145 mM NaCl, 5 mM CaCl2, 0.05% Triton X-100, pH 7.5; Z-Lys-SBzl substrate, read at 410 nm
active MASP-2cf (human) = test: as above
TFMI-3_HA (human) = TFMI-3_HA (human) (UniProt P10646); test: SPR; ProteOn XPR36, GLM chip; TFMI-3_HA captured on immobilised anti-HA antibody (50-80 RU), MASP-3cf injected; 20 mM HEPES, 150 mM NaCl, 5 mM CaCl2, 0.05% Triton X-100, pH 7.4; 1:1 Langmuir model

Ki [1]: 9.9 nM | Ki [2]: 11.1 nM | Ki (active MASP-2cf (human)): 75000 nM
Molecule: TFPI-based MASP-3 Inhibitor (TFMI-3) (from UniProt P10646 121-178) (designed binder)

Kd (TFMI-3_HA (human)): 17.7 nM | koff (TFMI-3_HA (human)): 0.00093 s⁻¹ | kon (TFMI-3_HA (human)): 52500 M⁻¹ s⁻¹
B1: active MASP-3cf (catalytic fragment of active MASP-3 containing the CCP1-CCP2-SP domains) (enzyme)
chain: IIGGRNAEPGLFPWQALIVVEDTSRVPNDKWFGSGALLSASWILTAAHVLRSQRRDTTVIPVSKEHVTVYLGLHDVRDKSGAVNSSAARVVLHPDFNIQNYNHDIALVQLQEPVPLGPHVMPVCLPRLEPEGPAPHMLGLVAGWGISNPNVTVDEIISSGTRTLSDVLQYVKLPVVPHAECKTSYESRSGNYSVTENMFCAGYYEGGKDTCLGDSGGAFVIFDDLSQRWVVQGLVSWGGPEECGSKQVYGVYTKVSNYVDWVWEQMGLPQSVVEPQVER
